Holding throughout (details): Homo sapiens; 10 uM
Substrate in data set [1]: NCCc1c[nH]cn1
Description: (§1) Activity of human recombinant CA14 at 10 uM by stopped-flow technique
Substrate in data set [2]: CNC[C@H](O)c1ccc(O)c(O)c1
Description: as §1
Substrate in data set [3]: NCCc1c[nH]cn1
The source holds these as a separate data set.
Description: (§2) Activity of human recombinant CA5A at 10 uM by stopped-flow technique

Substrate in data set [4]: CNC[C@H](O)c1ccc(O)c(O)c1
The source holds these as a separate data set.
Description: as §2

Substrate in data set [5]: NCCc1c[nH]cn1
The source holds these as a separate data set.
Description: (§3) Activity of human recombinant CA7 at 10 uM by stopped-flow technique

Substrate in data set [6]: CNC[C@H](O)c1ccc(O)c(O)c1
This is another data set of the same source.
Description: as §3

Substrate in data set [7]: NCCc1c[nH]cn1
This is another data set of the same source.
Description: (§4) Activity of human recombinant CA4 at 10 uM by stopped-flow technique

Substrate in data set [8]: CNC[C@H](O)c1ccc(O)c(O)c1
Description: as §4
The source holds these as a separate data set.

B1: Carbonic anhydrase 14 (Homo sapiens), Q9ULX7 (protein)
chain: MLFSALLLEVIWILAADGGQHWTYEGPHGQDHWPASYPECGNNAQSPIDIQTDSVTFDPDLPALQPHGYDQPGTEPLDLHNNGHTVQLSLPSTLYLGGLPRKYVAAQLHLHWGQKGSPGGSEHQINSEATFAELHIVHYDSDSYDSLSEAAERPQGLAVLGILIEVGETKNIAYEHILSHLHEVRHKDQKTSVPPFNLRELLPKQLGQYFRYNGSLTTPPCYQSVLWTVFYRRSQISMEQLEKLQGTLFSTEEEPSKLLVQNYRALQPLNQRMVFASFIQAGSSYTTGEMLSLGVGILVGCLCLLLAVYFIARKIRKKRLENRKSVVFTSAQATTEA
What is called kcat is the number of substrate molecules converted per active site and unit of time at saturation. For B1, the kcat in data set [1] was 10 10^5/s; in data set [2], 4.5 10^5/s.

B2: Carbonic anhydrase 5A, mitochondrial (Homo sapiens), P35218 (protein)
chain: MLGRNTWKTSAFSFLVEQMWAPLWSRSMRPGRWCSQRSCAWQTSNNTLHPLWTVPVSVPGGTRQSPINIQWRDSVYDPQLKPLRVSYEAASCLYIWNTGYLFQVEFDDATEASGISGGPLENHYRLKQFHFHWGAVNEGGSEHTVDGHAYPAELHLVHWNSVKYQNYKEAVVGENGLAVIGVFLKLGAHHQTLQRLVDILPEIKHKDARAAMRPFDPSTLLPTCWDYWTYAGSLTTPPLTESVTWIIQKEPVEVAPSQLSAFRTLLFSALGEEEKMMVNNYRPLQPLMNRKVWASFQATNEGTRS
Consider B2, for which the values for the kcat in data set [3] and in data set [4] were 8.6 10^5/s and 3.9 10^5/s, respectively.

B3: Carbonic anhydrase 7 (Homo sapiens), P43166 (protein)
chain: MTGHHGWGYGQDDGPSHWHKLYPIAQGDRQSPINIISSQAVYSPSLQPLELSYEACMSLSITNNGHSVQVDFNDSDDRTVVTGGPLEGPYRLKQFHFHWGKKHDVGSEHTVDGKSFPSELHLVHWNAKKYSTFGEAASAPDGLAVVGVFLETGDEHPSMNRLTDALYMVRFKGTKAQFSCFNPKCLLPASRHYWTYPGSLTTPPLSESVTWIVLREPICISERQMGKFRSLLFTSEDDERIHMVNNFRPPQPLKGRVVKASFRA
Consider B3, for which the kcat is 15.2 10^5/s in data set [5] and 10.4 10^5/s in data set [6].

B4: Carbonic anhydrase 4 (Homo sapiens), P22748 (protein)
chain: MRMLLALLALSAARPSASAESHWCYEVQAESSNYPCLVPVKWGGNCQKDRQSPINIVTTKAKVDKKLGRFFFSGYDKKQTWTVQNNGHSVMMLLENKASISGGGLPAPYQAKQLHLHWSDLPYKGSEHSLDGEHFAMEMHIVHEKEKGTSRNVKEAQDPEDEIAVLAFLVEAGTQVNEGFQPLVEALSNIPKPEMSTTMAESSLLDLLPKEEKLRHYFRYLGSLTTPTCDEKVVWTVFREPIQLHREQILAFSQKLYYDKEQTVSMKDNVRPLQQLGQRTVIKSGAPGRPLPWALPALLGPMLACLLAGFLR
In the case of B4, the kcat is 3.5 10^6/s in data set [7] and 2.9 10^6/s in data set [8].

(Values after ChEMBL document CHEMBL1146311, “Carbonic anhydrase activators: L-Adrenaline plugs the active site entrance of isozyme II, activating better isoforms I, IV, VA, VII, and XIV” (Bioorg Med Chem Lett, 2007).)
